Test results taken from the supplement of paper PMC10567573.

B1: CDS2 (parent)
chain: LIVVTQSHLVIHNLFEGMIWFIVP

Variants of: B1
Assay: protein stability index of a GFP-peptide fusion (GPS, HEK-293T) (PSI 1-6); higher = more stable
Conditions: c terminus: a fixed tail appended
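Also: lentivirally expressed fusions sorted by FACS into six bins by GFP to DsRed ratio, PSI derived from sequencing read proportions per bin multiplied by bin number.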

In order of falling protein stability index:
1. LIVVTQSHLVIHNLFEGMIWKIVP [F21K]  4.85
2. LIVVTQSHLVIHNLFEGMIQFIVP [W20Q]  4.66
3. LIVVTQSHLVIHNLWEGMIWFIVP [F15W]  4.64
4. LIVVTQSHLVIHNLFLGMIWFIVP [E16L]  4.5
5. LIVVTQSHLVIHNLFEGMIWFIEP [V23E]  4.22
6. LIVVTQSHLVIHNLFEGMIWFIFP [V23F]  4.17
7. LIVVTQSHLVIHNLFAGMIWFIVP [E16A]  4.16
8. LIVVTQSHLVIHNLFWGMIWFIVP [E16W]  3.98
9. LIVVTQSHLVIHNLFESMIWFIVP [G17S]  3.9
10. LIVVTQSHLVIHNLFELMIWFIVP [G17L]  3.83
11. LIVVTQSHLVIHNLFEGMIWFIVW [P24W]  3.81
12. LIVVTQSHLVIHNLFMGMIWFIVP [E16M]  3.76
13. LIVVTQSHLVIHNLFEGMPWFIVP [I19P]  3.75
14. LIVVTQSHLVIHNLFEGMGWFIVP [I19G]  3.67
15. LIVVTQSHLVIHNLFEGMISFIVP [W20S]  3.64
16. LIVVTQSHLVIHNLSEGMIWFIVP [F15S]  3.64
17. LIVVTQSHLVIHNLFEGMIWFIVC [P24C]  3.63
18. LIVVTQSHLVIHNLFEGMWWFIVP [I19W]  3.61
19. LIVVTQSHLVIHNLFEGMIWFILP [V23L]  3.54
20. LIVVTQSHLVIHNLFEVMIWFIVP [G17V]  3.48
21. LIVVTQSHLVIHNLFEGMIWFICP [V23C]  3.47
22. LIVVTQSHLVIHNLFIGMIWFIVP [E16I]  3.46
23. LIVVTQSHLVIHNLFDGMIWFIVP [E16D]  3.44
24. LIVVTQSHLVIHNLFEGMIWLIVP [F21L]  3.42
25. LIVVTQSHLVIHNLFSGMIWFIVP [E16S]  3.4
26. LIVVTQSHLVIHNLFEGMIWCIVP [F21C]  3.4
27. LIVVTQSHLVIHNLFEGMQWFIVP [I19Q]  3.36
28. LIVVTQSHLVIHNLFEGMIWFITP [V23T]  3.31
29. LIVVTQSHLVIHNLFEGMIWFIVG [P24G]  3.29
30. LIVVTQSHLVIHNLFEGMIWIIVP [F21I]  3.28
31. LIVVTQSHLVIHNLFEGMIWNIVP [F21N]  3.24
32. LIVVTQSHLVIHNLFEGMIHFIVP [W20H]  3.23
33. LIVVTQSHLVIHNLFEGMIIFIVP [W20I]  3.21
34. LIVVTQSHLVIHNLFEGMICFIVP [W20C]  3.16
35. LIVVTQSHLVIHNLFEAMIWFIVP [G17A]  3.15
36. LIVVTQSHLVIHNLFEMMIWFIVP [G17M]  3.13
37. LIVVTQSHLVIHNLFEGMIWFIVH [P24H]  3.13
38. LIVVTQSHLVIHNLFEGMIWFIVR [P24R]  3.1
39. LIVVTQSHLVIHNLFEGMINFIVP [W20N]  3.08
40. LIVVTQSHLVIHNLFNGMIWFIVP [E16N]  3.06
41. LIVVTQSHLVIHNLFEGMIVFIVP [W20V]  3.06
42. LIVVTQSHLVIHNLFEGMIWTIVP [F21T]  3.04
43. LIVVTQSHLVIHNLFEGMIWFIDP [V23D]  3.03
44. LIVVTQSHLVIHNLFEGMIWFIYP [V23Y]  3.02
45. LIVVTQSHLVIHNLFEGMMWFIVP [I19M]  2.95
46. LIVVTQSHLVIHNLFEGMIWRIVP [F21R]  2.94
47. LIVVTQSHLVIHNLFEDMIWFIVP [G17D]  2.93
48. LIVVTQSHLVIHNLFGGMIWFIVP [E16G]  2.9
49. LIVVTQSHLVIHNLFEGMIWFIIP [V23I]  2.9
50. LIVVTQSHLVIHNLFEGMFWFIVP [I19F]  2.89
51. LIVVTQSHLVIHNLFEGMIDFIVP [W20D]  2.87
52. LIVVTQSHLVIHNLFTGMIWFIVP [E16T]  2.83
53. LIVVTQSHLVIHNLFEGMIFFIVP [W20F]  2.83
54. LIVVTQSHLVIHNLFEGMIWFIVN [P24N]  2.81
55. LIVVTQSHLVIHNLFEGMIWSIVP [F21S]  2.8
56. LIVVTQSHLVIHNLFEGMSWFIVP [I19S]  2.75
57. LIVVTQSHLVIHNLFYGMIWFIVP [E16Y]  2.74
58. LIVVTQSHLVIHNLVEGMIWFIVP [F15V]  2.72
59. LIVVTQSHLVIHNLFEGMIWFIVV [P24V]  2.65
60. LIVVTQSHLVIHNLFEGMAWFIVP [I19A]  2.65
61. LIVVTQSHLVIHNLFEQMIWFIVP [G17Q]  2.63
62. LIVVTQSHLVIHNLFEGMIPFIVP [W20P]  2.6
63. LIVVTQSHLVIHNLFEGMIWFIVM [P24M]  2.59
64. LIVVTQSHLVIHNLFEGMIRFIVP [W20R]  2.57
65. LIVVTQSHLVIHNLFEEMIWFIVP [G17E]  2.55
66. LIVVTQSHLVIHNLFEGMIWFIVF [P24F]  2.52
67. LIVVTQSHLVIHNLFFGMIWFIVP [E16F]  2.52
68. LIVVTQSHLVIHNLFEGMIWYIVP [F21Y]  2.52
69. LIVVTQSHLVIHNLFEGMIWFINP [V23N]  2.51
70. LIVVTQSHLVIHNLFEGMIWGIVP [F21G]  2.49
71. LIVVTQSHLVIHNLFPGMIWFIVP [E16P]  2.48
72. LIVVTQSHLVIHNLFEGMKWFIVP [I19K]  2.41
73. LIVVTQSHLVIHNLFEGMIWVIVP [F21V]  2.39
74. LIVVTQSHLVIHNLFEGMIEFIVP [W20E]  2.38
75. LIVVTQSHLVIHNLFEGMIWFIAP [V23A]  2.36
76. LIVVTQSHLVIHNLFEWMIWFIVP [G17W]  2.35
77. LIVVTQSHLVIHNLFKGMIWFIVP [E16K]  2.35
78. LIVVTQSHLVIHNLFEGMIWFIVY [P24Y]  2.3
79. LIVVTQSHLVIHNLFENMIWFIVP [G17N]  2.29
80. LIVVTQSHLVIHNLFEGMIMFIVP [W20M]  2.28
81. LIVVTQSHLVIHNLFEGMIWFIVL [P24L]  2.19
82. LIVVTQSHLVIHNLFEGMIGFIVP [W20G]  2.19
83. LIVVTQSHLVIHNLFEGMIWFIVD [P24D]  2.06
84. LIVVTQSHLVIHNLFQGMIWFIVP [E16Q]  2.01
85. LIVVTQSHLVIHNLFEGMIWFIVS [P24S]  1.99
86. LIVVTQSHLVIHNLFEGMIWEIVP [F21E]  1.96
87. LIVVTQSHLVIHNLFEIMIWFIVP [G17I]  1.85
88. LIVVTQSHLVIHNLFEGMIWFISP [V23S]  1.85
89. LIVVTQSHLVIHNLFEGMLWFIVP [I19L]  1.84
90. LIVVTQSHLVIHNLFEYMIWFIVP [G17Y]  1.68
91. LIVVTQSHLVIHNLFEGMIWFIWP [V23W]  1.67
92. LIVVTQSHLVIHNLFEGMIKFIVP [W20K]  1.61
93. LIVVTQSHLVIHNLFEGMIWWIVP [F21W]  1.6
94. LIVVTQSHLVIHNLFEGMIWFIQP [V23Q]  1.52
